This is an account of results in the DeepSol protein solubility set.

A short description of this data set: soluble on expression in E. coli; label from the status in PepcDB or PDB records.
For “MDKPVDKPAKGKRPAAAGRGSKPRSASAERVRRHREKMKAMGLKPVTIWVPEDYNSPEYKAEIRRECELINADPESEIVLEGMWELADFGDWKA”, the “soluble on expression in E. coli” value was “not soluble”.

As to “MEDISDPEVILEYGVYPAFIKGYTQLKANIEEALLEMSNSGQALDIYQAVQTLNAENMLLNYYESLPFYLNRQSILANMTKALKDAHIREAMAHYKLGEFAHYQDTMLDMVERTIKTF”, the “soluble on expression in E. coli” value is reported as “not soluble”.

Turning to “MAHHHHHHMSITAGTLPPVKGTSVKKSPRKGRPADSMGNGTGAAADPHCYHKCRCYGHDDTLPNYKLLTIPRTNNYYAATGGCPCVPRVAAHPGSWRLKEGQLRSSTYRCGTGCIKKSAALTLGCCHHSGDQYGWRRGPHTVLDKNTAATGKCDTFGNLAFKSTSRAYCAVGGDDLSDVSSASPQKLEDLEALILEEHQQRMRVEEDVDELAGIQRNGTADWYKKIHHDAERRRLLAQISEVELQDLLRDVKNIVDRPLNQTNMDLLRRILHRQEHLQRQREYYAAQELE”, the “soluble on expression in E. coli” value was “not soluble”.

On to “MGSDKIHHHHHHMRDTWRWTMTQNKRSGNRRTPTPELDSASLVPPTVPSVVDDVEGGKPNTVEFRATYSPLRVEFHPWANSHPEIDEEYLFLYWNDVLVDKKTFSKPIEPEELFILVPVDKLIEGPHRLHYEVTLYSDTHVSSRPLDIYIDKTPPLLPADDRLMLPDYVIREGVTEEYLAANGDKLVCTVPSFIGAEPGDVVKWFYSENGAGQEMVDMMTLTQEHIETLGPLGTSKPLELTFPGAFIRQSGNGTRYVRYEVQDRAGTQPQRALAVALESDLSLAPRELPPPRIKEAKGSDYQSTLEPGNAFDGVTFVIPDDADIRPNETVTVFWGQPGTLGGYSTSTPISPGALEYLIPSQYVPPHMSGRVELYYQIDKPDVPPSPSHYVTVRKIEGLPIVQCSDIRNRALNLRTLGESTTFTLESWPFRHTSQFVNAWIDGVESGNVTREIRLPIATALPVPSETGVMVLGSVTKTELLRLAINYQFRVSVEVSFDDKLSWLKFPDAAAQLEDKP”, for which the “soluble on expression in E. coli” value was “not soluble”.

Take “MGSDKIHHHHHHMEKLLTIVVPAYNVEKYIKNCLDSFIDLSVLRSLEILIVDDGSTDSTASLAHTYEQKYPYSFKVLSKENGGHGSTINYAIPRATGKYFKVVDGDDWLDKSLLPQFVQLLKHTHSDVISNDFNLVDDKTKKVTKRRKAVSNSYHYNREWGFAEAVMDPLITIHSMTIRTDVLQKNDIRVDEHCFYEDQEYILYPIPYCTSITFSPLPLYQYRLGRSGQSVDIKMMIKRHDQHLKVLDALFEYNNVHGNLQTYKKQYLERGIAEAVDDEYQIFLAKGNDTRNVEQMKKFDEMLREEHPGVYQACSRKSVWMLRKTGFKIFPMAAWVYSRLRGN”: the “soluble on expression in E. coli” value is recorded as “not soluble”.

For “MQKVESIIIGGGPCGLSAAIEQKRKGIDTLIIEKGNVVESIYNYPTHQTFFSSSDKLSIGDVPFIVEESKPRRNQALVYYREVVKHHQLKVNAFEEVLTVKKMNNKFTITTTKDVYECRFLTIATGYYGQHNTLEVEGADLPKVFHYFKEAHPYFDQDVVIIGGKNSAIDAALELEKAGANVTVLYRGGDYSPSIKPWILPNFTALVNHEKIDMEFNANVTQITEDTVTYEVNGESKTIHNDYVFAMIGYHPDYEFLKSVGIQINTNEFGTAPMYNKETYETNIENCYIAGVIAAGNDANTIFIENGKFHGGIIAQNMLAKKQTPLES”, the “soluble on expression in E. coli” value is “soluble”.

As to “MGSDKIHHHHHHKIEELTAVPLQIGYEKTLHLIFPTEVKYYSIGGDYVIGEKVVNCPGIIRLKAAEENFPGETTLSVVTADTKFYSYSISYNAHPAQSYVRIGGEAPTPHTLPVGKEKQLFLIFPAGITYVDYGSTNVEVDKAEGVDNILAVKAVQPYKEDTNISVVLEGGKFYTFDLRYVPAPERFSFVIDKEDTQRVAILDEKERSYGQKERIREAVAKRTPLDLGLRDKNSGMEFEVGNIFIDGDVLLLRMTLTNRTQIGYTTDFMRFYIQDAKIRKKTAVQQLEQNILFTFDYPEEIPAHESRTFTVAMNKFTIPDKKRLIIEIQERNGGRHFLYKLKNKSLLTAEEVFRSRKQQETEDEADKILRRIAR”, the “soluble on expression in E. coli” value was “not soluble”.

As for “MGSDKIHHHHHHTYDYFEDETNYQVFVPEVLNKTVSDCRVLVYNDAGTLVGARYATSPWDKDPRMEAGLFSFRLTPGEYKVYCYTNTDSLTFVDGQHLDASAFILKSSSTGPNRYVQPSDILFQKFVPAIVHPGILQTDTAALERYTGRITVRFKKFPGDVSHIKKVQLLAEGAPVMQYLKNDTLTGRLTPEDKMFHFGTLPVQEKADVLEVDHRFIPSVENEPMRLNYTFLDENGAVVNHLPVEVTERETGLPLRLLHGKRIIIEIESYTVIKISVVGWNEDIESGDTDME”, the “soluble on expression in E. coli” value was “not soluble”.

On to “MSLKVLIIGGVAAGTKTAAKIKREMGDNCSVTILNKGDDISYAGCGLPYYVGKIIEDKSSLIVNTPESFSKLTGAEVRCGVEVTSIDRNAKQVTLKTLSTGEKENLSYDKLVIATGADPIKPPIPGIDLPGVFFMRTPNDAIKLRDSIENGIKRAVVIGGGFIGLEIAENLSAMGIRVSVVDMAEHVMPGFDTDFAEYVENHMADKGIMIFTGDQVVGIEGENKVEKLRTKNRAIKTDLVVMSVGIRPNTGFLKDTGLEFAPNNTIIADEYMLTNDKDIYVVGDCAFVKNSLTNKPTWSPMGSSANHEGRICAQNISGKSKTYNGVLGTTVVKLPELNAGKTGLSKEIAEKEGYNVCSVTIATDDKAHYYPGASNFIIRMVAEKNTRKLLGVQVMGPGAVDKIVDIAATAITLGADLYSLESMDLAYAPPFSTAIHPFVVAVNVLQNKLNGELDSVLLDEIEDFDSWTKLDVSKAPSIPSLRYIPVGEINGEIEGLAKDEKILLICAKGKNSYMAQNRLRRFGYTNTKVLEGGILFYPNLKVMEEGHHHHHH”, for which the “soluble on expression in E. coli” value is listed as “soluble”.

Turning to “MGSDKIHHHHHHMSTPSPALFFNTVNAYQRSAAIKAAVELNVFTAISQGIESSQSLAQKCQTSERGMRMLCDYLVIIGFMTKQAEGYRLTSDSAMFLDRQSKFYVGDAIEFLLSPMITNGFNDLTAAVLKGGTAISSEGTLSPEHPVWVQFAKAMSPMMANPAQLIAQLVNENKIEPLKVLDISASHGLFGIAVAQHNPNAEIFGVDWASVLEVAKENARIQGVASRYHTIAGSAFEVDYGNDYDLVLLPNFLHHFDVATCEQLLRKIKTALAVEGKVIVFDFIPNSDRITPPDAAAFSLVMLATTPNGDAYTFAEYESMFSNAGFSHSQLHSLPTTQQQVIVAYK”, the “soluble on expression in E. coli” value was “not soluble”.

With “MPKPYVAINMAELKNEPKTFEMFASVGPKVCMVTARHPGFVGFQNHIQIGILPFGNRYGGAKMDMTKESSTVRVLQYTFWKDWKDHEEMHRQNWSYLFRLCYSCASQMIWGPWEPIYEIIYANMPINTEMTDFTAVVGKKFAEGKPLDIPVISQPYGKRVVAFAEHSVIPGKEKQFEDAIVRTLEMLKKAPGFLGAMVLKEIGVSGIGSMQFGAKGFHQVLENPGSLEPDPNNVMYSVPEAKNTPQQYIVHVEWANTDALMFGMGRVLLYPELRQVHDEVLDTLVYGPYIRILNPMMEGTFWREYLNEQAWRHPQFGG”, the “soluble on expression in E. coli” value is reported as “soluble”.

As to “PAWWGERAHPISEGGRGSAWFVEASFGNAVLRQYRRGGMIAMLNRDRYFWCGGHRTRSVLEFRLMRELISRGLPVPTPLAACYVRHGVQYRAAILMERLEGVSSLAMCVRGNSKEIHWEQIGRMISRFHREGLDHADLNAHNILLDQAGQCWLIDFDRGALRIPATKWREHNLARLLRSLLKIRGERSVDAVYRDFERLCRAY”, the “soluble on expression in E. coli” value is “not soluble”.

Turning to “MGSDKIHHHHHHVPSGNGDNPATGARGGNMEISFLVPNSSNGSRAASAEDSGVYEDGTAEEYKVSNVTLYLFDSSSKNLVTTINVTQSDLGAGTSSGESSKEGQTIVYPCNKEITVKPGNYDILAVANGSQTFEIGQESTLLGQIDASTYGNGMITSVPGSGFIMSNRGSANMNITVESPEESDTKTQVRINLERAVAKLMVRNDSKEIYTLKNPAGVTYATVRLNNYKFINLANKFYTFRHVATLDNAPETPSAPSSYSVEAGNFGNIADNNGYLIDPYFFDKTVAGATTNFTGGSFYTNHLSKQTDSNWSGLADAGKYVSMYCLENCMFRPAQNTVYTTGIMLKGTFTPEASQTIGNNGNPVEDPLVFNTLYYFNYKFYTTLAAVGKYGDANIDGLTEESSDAELAAKQITRFTKNGGNFSTFYNYWIKHLDNNNPTVMGVMEFGIVRNNIYSVNITSIKNLGPGTPDTKPDPDENKAFLDVEFGVYPWIVRDQDADLE”, the “soluble on expression in E. coli” value is recorded as “not soluble”.
